Results published in PMC2940854, “Crystal Structure of the RNA Recognition Motif of Yeast Translation Initiation Factor eIF3b Reveals Differences to Human eIF3b” (PLoS ONE, 2010).

Target: T1, yeast eIF3j (Hcr1) (yeast, UniProt Q05775 1-265)
T1 construct: source: E. coli Rosetta2 (DE3), pGEX-6P-1, purified (GSTrap, PreScission cleavage, second glutathione step, Superdex S-75)
Experiment: ITC; VP-ITC; 20 µL aliquots of 229 µM eIF3b-RRM^76–170 injected into the cell with 10 µM Hcr1; 200 mM NaCl, 10 mM Hepes pH 7.5, 5% glycerol; single binding site model
Conditions: both partners purified

T1 sequence (Q05775 whole entry): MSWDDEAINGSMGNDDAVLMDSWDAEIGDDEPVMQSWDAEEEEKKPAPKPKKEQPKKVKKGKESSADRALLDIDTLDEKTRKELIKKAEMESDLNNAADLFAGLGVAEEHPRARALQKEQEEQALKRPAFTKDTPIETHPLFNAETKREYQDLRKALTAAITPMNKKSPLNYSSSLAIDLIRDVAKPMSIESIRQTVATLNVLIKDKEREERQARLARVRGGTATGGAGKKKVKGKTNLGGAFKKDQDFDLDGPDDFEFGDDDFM

Kd: 7.5 ± 0.5 µM | dH: -9.28 ± 0.217 kcal/mol | stoichiometry N: ~1
B1: yeast eIF3b-RRM, residues 76-170 (domain or fragment, UniProt P06103 76-170, looked up)
chain: DQYIVVNGAPVIPSAKVPVLKKALTSLFSKAGKVVNMEFPIDEATGKTKGFLFVECGSMNDAKKIIKSFHGKRLDLKHRLFLYTMKDVERYNSDD
notes: also called eIF3b-RRM^76–170; RRM^76–170; source: E. coli Rosetta2 (DE3), pGEX-6P-1, purified (GSTrap, PreScission cleavage, Superdex S-75)
